Assay results taken from the nanobody polyreactivity screen of Harvey et al. (2022).

test: yeast display, Sf9 membrane polyspecificity reagent, FACS + sequencing; frameworks hold sequencing errors
How it was run: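 A synthetic nanobody library was expressed on Saccharomyces cerevisiae BJ5465 by galactose induction for 36–48 hours. The library was stained for 1 hour at 4 °C with 10% biotinylated, detergent-solubilized Sf9 membrane reagent and enriched with streptavidin microbeads before FACS. Low and high (top ~1%) gates were set on anti-HA fluorescence for expression and streptavidin fluorescence for reagent binding, and each polyreactivity label reflects the gate of origin.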

Row | Sequence | polyreactivity (PSR sort gate)
1 | QVQLVESGGGLVQAGGSLRLSCAASGIFVGNAMGWYRQAPGKERELVAAITGDGDSTYYADSVKGRFTISRDNAKNTVYLQMNSLKPEDNAVYYCNTVFDTIVDKYYYWGQGTQVTVSS | low polyreactivity
2 | QVQLVESGGGLVQAGGSLRLSCAASGRTFVPNALGWYRQAPGKERELVAALSWSGDSTYYADSVKGRFTISRDNAKNTVYLQMNSLKPEDTAVYYCAADPFFGVSIGGLKYHFDYWGQGTQVTVSS | low polyreactivity
3 | QVQLVESGGGLVQAGGSLRLSCAAYGSTFCVYAMGWYRQAQGKERELVAAINFSGRTYYADSVKVRFSISRDNAKNTVYVQMNSLKPEDTAVYYCAARIIFEDVGTKYYYWGQGTHVTVSS | high polyreactivity
4 | QVQLVESGGGLVQAGGSLRLTCAASGSIFVGYAMGWYRQAPGKERELVAAITGSGTRTYYADSVKGRFTISRDNAKNTVYLQMNSLKPEDTAVYYCAADYFRYYPYDYWGQGTQVTVSS | low polyreactivity
5 | QVQLVESGGGLVQAGVSLRLSCAASGFIFFPYVMGWYRQAPGKERELVARNTSGGGSTYYADSVKGRFTISRDNAKNTVYIQMNSLKPEDTAGYYCKARRIWYQSTFNYWGQGTQVTVSS | high polyreactivity
6 | QVQLQESGGGLVQAVGSLRLSCAASGNISDYYDMGWYRQAPGKERKFVAGIDFGAITNYADSVKGRFTISRDNAKNTEYLQMSSLKPEDTAVYYCAAGVYDWYAYDYWGQGTQVTVSS | high polyreactivity
7 | QVQLVESGGGLVQAGGSLRLSCAASGSIFEGYAMGWYRQAPGKERELVADITSGGSTYYADSVKGRFTISRDNAKNTVYLQMNSLKPEDNAVYYCNRDYHWIELVYPDDRREYDYWGQGTQVTVSS | low polyreactivity
8 | QVQLVESGGGLVQAGGSLRLSCAASGSTFVDYAMGWYRQAPGKERELVAAMSSSGGSTYYADSVKGRFTISRDNAKNTVYLQMNSLKPEDTAVYYCAARYDRSSKRNYWGQGTQVTVSS | low polyreactivity
9 | QVQLVESGGGLVQAGGSLRLSCAASGSTFVFYAMGWSREAPGKERELVAAITISGDITYYADSVKGRFTISRDNAKNTVYLQMNSLKPEDTAVYYWAVDGPIPDLHEYWGQGTQVTVSS | low polyreactivity
10 | QVQLVESGGGIVQAGGSLRLSCAASGRTFQPYAMGWYRQAPGKERELVAAITSIGGSTFYADSVKGRFTISRDNAKNTVYLQMNSLKPEDTAVYYCARRGYYRSKWERDYWGQGTQVTVSS | low polyreactivity
11 | QVQLEESGGGLVQAGGSLRLSCAASGRIFYRYAMGWYRQAPGKERELVAAISWSGGSTNYADSVRGRFTISRDNAKNTVYLQMNSLKPEDTAVYYCAAKYRSIRESATYYYWGQGTQVTVSS | high polyreactivity
12 | QVQLVESGGGFVQAGGSLRLSCAASGSTFFTNAKGWYRQAPGKERELVAASRWRGGTYYADSVKGRFTISRDNAKKTVYLQMNSLKPEDTPVYDCATSVKTSFDYWRQGTQVTVSS | low polyreactivity
13 | QVQLVESGGGLVQAGGSLRLSCASSGSIFAWNAMGWYRQTPGKERELVAAINSGGGTYYADSVKGRFTISRDNAKNTVYSQMNSLIPEDTAVYYCAAGRLSHRYRYNYWGQGTQVTVSS | high polyreactivity
14 | QVQLVESGGGLVQAGGSLRLSCAASGFTIDLYAMGWYRQAPGKERELVAAISIRGGSTYYADSVKGRFTISRDNAKNTVYLQMNSLKPEDTAVYYCATVTSRRSYIAYRGTGDYDYWGQGTQVTVSS | low polyreactivity
15 | QVQLGESRGGLVQAGGSLRLSCAASGTFAYKTIGWYRQAPGKEREWVAAITSSGGSTYYADSVKGRFTISRDNAKNTVYVLMNSLKPEDTAVYYCDKGSTWYYRKYDYWGQGTQVTVSS | high polyreactivity
16 | QVQLVESGGGLVQAGGSLRLSCAASGSILYWNAMGWYRQAPGKERELVADITWRGGSTYADSVKGRFTISRDNAKNTVYLQMNSLKPEDTAVYYCNAVPVRGSAPRYRQTYSYWGQGTQVTVSS | high polyreactivity
17 | QVQLVESGGGLLQAGGSLRLSSAASGLTFAAYAMGWYRQAPGKEREFVAAITSSGGSTYYADSVKGRFTISRDNAKNSVYLQMNSLKPEDTAVYYCAAYYYDHYYWGQGTQVTVSS | high polyreactivity
18 | QDQLVESGGGLVQAGGSLRLSCAPSGSIFYTNAMGWYRQAPRKERHLVAAISWGGGSTYYADSVKGRFTISRDNAKNTVYLQMNSLKAEDTAVYYCAARYYVYQQGFRSHVTKHYDYWGQGTQVTVSS | low polyreactivity
19 | QVKHVESGGGLVQAGASLRLSCAASGSIFAYNAMGCYIQAPGKERELVATISRGGNTNYADSVKGRFTISRDNAKNSVYLQMNSLKPEDTAVYYCNVLGRDIDHEYGYWGQGTQVTVSS | high polyreactivity
20 | QVQLVESGGGLVQAGGNLRLSCAASGFIFTRYAMGWYRPAPGKERELVAAISTSGDRTYYADSVKGRFTISRDNAKNTVYVQMHSLKPEDTAVYFCAVVRRRSVGRYVYWGQGTQVTVSS | high polyreactivity
21 | QVQLGESGGGLVQAGGSLRLSCAASGSIFVPYAMGWYRQAPGKERELVAVITSGGSTYYADSVKGRFTISRDNAKNTVYLQMNSLKPEDTAVYYCYADLYYVWSTLSQFDYWGQGTQVTVSS | low polyreactivity

Row | Sequence | polyreactivity (PSR sort gate)
22 | EVQLVESGGGLVQPGGSLRLSCAASGYIYSRYRMGWYRQAPGKGREFVAAISGGSSTNYADSVKGRFTISRDNSKNTVYLQMNSLRAEDTAVYYCAAYKIDIDPRVYWGHGTQVTVSS | low polyreactivity
23 | QVQLVESGGGLVQAGGILRLSCAASGRIFSYYAKGWYRQAPGKERELVAAITRGGSTNYADSVKGRFTISRDNAKNSVYLQMNSLKPEDTAVYYFAVRGGYTGPTYNYWGQGTQVTVSS | high polyreactivity
24 | QVQLVESGGGLVQAGGSLRLSCAASGNIFPYYAMGWYRQAPGKERELVASITWSGGRTYYADSVKGRFTISRDNAKNTVYLQMNSLKPEDTAVYYCAKEHHRTGQGRDYDYWGQGTQVTVSS | low polyreactivity
25 | QVQLVESGGGLVQAGGSLRLSCAASGFIFSKNVMGWYRQAPGKERELVARITRSGGTTYYADSVKVRFTISRDNAKNTVYLQMHRLKQEDTAVYYCAARRYGYTSITWYDYWGQGTQVTVSS | high polyreactivity
26 | QVRLVESGGGLVQAGGSLRLSCAASGFIFWRNAMGWYRQAPGKERELVAAITSGGSTNYADSVKGRFTISRDNAKNTVYLQMNSLKPVDTAVYYCAARQWFSHRRWGGSRYDYWGQGTQVTVSS | low polyreactivity
27 | QVQLVESGGGLVQAGGSLRLSCAASGRTFQYYAMGWYRQAPGKERELVAAINQGGGRTYYADSVKGRFTISRDTAKNTVYLQMNSLKPEDTAVYYCAADGLSKFDYWGQGTQVTVSS | low polyreactivity
28 | QVQLVESGGGLVQAGGSLRLSCAASGFTFYRNVMGWYRQAPGKERELVAAISSRGGSTYYADSVKGRFTISRDNAKNTVYLQMNSLKPEDTAVYYCNKARYTVISYDEYDYWGQGTQVTVSS | high polyreactivity
29 | QVQLVESGGGLVQAGGSLRLSCAASGFIFVAYAMGWSRQAPGKERELVAAITSSGGRTYYADSVKGRFTISRDNAKNTVYLQMNSLKPEDTAVYYCAARVYRSAKGYNYWGQGTQVTVSS | high polyreactivity
30 | QVQLQESGGGLEQAGGSLRLSCAASGYISDIGTMGWYRQAPGKEREFVATLVVGSTTNYADSVKGRFTISRDNAKNTVYLQPESGRYRGVLLRGWLLAVGKFTYWGQGTQETVSS | low polyreactivity
31 | HVQLVESGGGLVQAGGSLRLSCADSGRILYYYAMRWYIQEPGKERELVAAINSSGGSPYYADSVKGRFTISRDIAKNTVYLQMNSLKPEDTAVYYGAAEYQVQGYDYWGQGSQVTVSS | high polyreactivity
32 | QGQLVESGGGLVQAGGSLRLSCAASGFTLLPYAMGWYRQAPGKERELVAAISRRGVSTYYADSVKGRFTISRDNAKNTVYLQMISLKPEDTAVYYCAAKYRKWPMDYWGQGTQVTVSS | high polyreactivity
33 | QVQLVESGGALVQAGGSLRLTCAYSGSTSYNNAMGWYRHAPGKERELYASLYMSAGSTYYADSVKGRFKISRDNEKNTVYLQMNSLKPEDTAVYYCAAESVAILGLVDPKGYGYWGQGTQVTVSS | low polyreactivity
34 | QVQLQERGGGLVQARGSLRLSCAASGNISYRTNMGWYRPAPGKERELVASIGGGTTNYADSVKGRFTISRDNAKKTVYLQMNSLKPVDTAVYYCAVVGTTQFRHRYWGQGTQVTASS | high polyreactivity
35 | QVQLVESCGGLVQAGGSLRLSCADSGLTMYGYARGWYRHAPGNERELVATLTRRGGSTYYADSVKGRFTISRDNAKNTVYLQMNSLKPEDPAVYYCAATYQHQNPQGVFSGGYYYWGQGTQVTVAS | high polyreactivity
36 | QVQLVESGGGLVQAGGSLRLSCAASGSTFGGYAMGWYRQAPGKERELVATITGGGSTNYADSVKGRFTISRDNAKNTVYLQMNSLKPEDTAVYYCAATEKYQYKVYYDPVGAYDYWGQGTQVTVST | low polyreactivity
37 | QVQLEESGGGLVQAGGSLRLSCAASGFIIHLYGMGWYRQAPGKERELVAAISSGGRTYYADSVKGRFTISRDNAKNTVDLQMNSMIPEVTAVSYSAVFVAYLYSYYYWGQGTQVTVSS | low polyreactivity
38 | QVQLVESGGGLVQAGGSLRLSCAASGSTFHWYDMGWYRPAPGKERELVAGINSSGDGTYYADSVKGRFTISRDNAKNTVYLQMNSLKPEDTAVYYCAAPWWYYGVPYQTNKYDYWGQGTQVTVSS | low polyreactivity
39 | QVQLVESGGGLVQAGGSLRLSCAASGRTFYYYAMGWSRPAPGKERELVAGINSGGSTNYADSVKGRFTISRDNAKNTVYLQMNRLKPEDTAVYYCAVEDLGSEGWGWYKEMDYWGQGTQVTVSS | low polyreactivity
40 | QLQLVESGGGLVQAGGSLRLSCAASGRIFGVYVMGLYRQAPGKERELVAAISWSGSHTYYADSVKGRFTISRDNAKNTVYLQMNSLKPEDTAVYYCNADSYPDYTGPGLDWYDYWGQGTQVTVSS | low polyreactivity
41 | QVQLVESGGGLVQAGGSLRLSCAASGSTFQSYTMGWYRQAPGKERELVATITSTSSTSYADSVKGRFTISRDNAKNTVYLQMNSLKPEDTAVYYCNAEGLHWGQVTQVTVSS | low polyreactivity
